Measured values: patent US20120094935A1

Tests used:
[1] = biological target: N-terminally His-tagged form of human TNFα (residues 6-157, numbered as in PDB entry 1TNF), soluble TNFα trimer (human) (UniProt P01375); experiment: crystal structure, SC program in CCP4
[2] = biological target: N-terminally His-tagged form of human TNFα (residues 6-157, numbered as in PDB entry 1TNF), soluble TNFα trimer (human) (UniProt P01375); experiment: crystal structure, AREAIMOL with 1.4 Å probe

Sequence of UniProt P01375 (P01375 other isoform, or with tags, fused parts or gaps limits assumed): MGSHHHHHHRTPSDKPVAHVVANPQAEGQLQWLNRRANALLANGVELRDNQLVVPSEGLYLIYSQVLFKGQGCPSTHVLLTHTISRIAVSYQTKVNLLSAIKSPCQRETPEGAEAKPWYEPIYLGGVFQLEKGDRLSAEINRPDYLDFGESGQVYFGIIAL

Substance: C-terminally His-tagged version of Yaba-like disease virus (YLDV) 2L lacking six C-terminal residues
- shape complementarity index SC [1]: 0.72
- buried surface area contributed by 2L [2]: 1030 Å^2
- total buried surface area at the 2L-TNFα interface [2]: 2060 Å^2
